First the molecules themselves.
T1: native PRLR expressing T47D cells (Homo sapiens, UniProt P16471)
T1 construct: a native PRLR expressing cell line (T47D); endogenous in cells; host or cells: T47D
T1 sequence (P16471 25-622): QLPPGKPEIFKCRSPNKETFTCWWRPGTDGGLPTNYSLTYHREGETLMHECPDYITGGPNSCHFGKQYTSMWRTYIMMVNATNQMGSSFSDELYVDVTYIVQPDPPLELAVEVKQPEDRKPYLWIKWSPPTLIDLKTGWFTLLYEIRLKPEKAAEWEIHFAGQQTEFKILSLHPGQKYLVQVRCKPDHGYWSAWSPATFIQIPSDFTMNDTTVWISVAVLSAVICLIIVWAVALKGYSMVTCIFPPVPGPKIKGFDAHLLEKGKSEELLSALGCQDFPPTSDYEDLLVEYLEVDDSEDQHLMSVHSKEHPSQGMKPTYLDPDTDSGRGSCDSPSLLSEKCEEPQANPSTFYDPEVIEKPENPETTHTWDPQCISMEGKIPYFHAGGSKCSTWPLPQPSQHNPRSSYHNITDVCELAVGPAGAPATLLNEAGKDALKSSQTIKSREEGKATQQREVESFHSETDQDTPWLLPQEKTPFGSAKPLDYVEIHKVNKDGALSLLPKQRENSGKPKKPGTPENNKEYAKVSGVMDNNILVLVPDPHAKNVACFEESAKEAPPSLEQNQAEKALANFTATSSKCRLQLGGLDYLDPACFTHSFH

T2: monkey PRLR on HEK293/mfPRLR cells (Macaca fascicularis, UniProt A0A2K5WXK1)
T2 construct: HA; expressed in transfected cells; host or cells: HEK293
T2 sequence (A0A2K5WXK1 25-619): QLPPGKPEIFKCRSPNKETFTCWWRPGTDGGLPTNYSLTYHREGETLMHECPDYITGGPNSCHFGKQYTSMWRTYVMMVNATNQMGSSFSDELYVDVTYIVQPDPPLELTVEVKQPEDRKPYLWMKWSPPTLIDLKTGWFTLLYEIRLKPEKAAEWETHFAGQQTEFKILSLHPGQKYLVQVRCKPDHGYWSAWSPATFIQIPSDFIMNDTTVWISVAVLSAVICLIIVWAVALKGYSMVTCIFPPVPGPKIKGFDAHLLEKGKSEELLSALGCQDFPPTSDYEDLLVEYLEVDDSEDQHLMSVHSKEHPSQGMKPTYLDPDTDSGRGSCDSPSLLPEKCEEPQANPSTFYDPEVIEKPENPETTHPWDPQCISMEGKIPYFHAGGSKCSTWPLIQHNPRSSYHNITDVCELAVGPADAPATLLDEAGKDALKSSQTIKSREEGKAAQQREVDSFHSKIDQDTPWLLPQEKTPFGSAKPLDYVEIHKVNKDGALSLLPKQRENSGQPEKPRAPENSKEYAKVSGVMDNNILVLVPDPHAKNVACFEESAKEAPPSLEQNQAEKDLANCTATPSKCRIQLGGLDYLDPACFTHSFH

T3: mouse PRLR on HEK293/mPRLR cells (Mus musculus, UniProt Q08501)
T3 construct: HA; expressed in transfected cells; host or cells: HEK293
T3 sequence (Q08501 20-608): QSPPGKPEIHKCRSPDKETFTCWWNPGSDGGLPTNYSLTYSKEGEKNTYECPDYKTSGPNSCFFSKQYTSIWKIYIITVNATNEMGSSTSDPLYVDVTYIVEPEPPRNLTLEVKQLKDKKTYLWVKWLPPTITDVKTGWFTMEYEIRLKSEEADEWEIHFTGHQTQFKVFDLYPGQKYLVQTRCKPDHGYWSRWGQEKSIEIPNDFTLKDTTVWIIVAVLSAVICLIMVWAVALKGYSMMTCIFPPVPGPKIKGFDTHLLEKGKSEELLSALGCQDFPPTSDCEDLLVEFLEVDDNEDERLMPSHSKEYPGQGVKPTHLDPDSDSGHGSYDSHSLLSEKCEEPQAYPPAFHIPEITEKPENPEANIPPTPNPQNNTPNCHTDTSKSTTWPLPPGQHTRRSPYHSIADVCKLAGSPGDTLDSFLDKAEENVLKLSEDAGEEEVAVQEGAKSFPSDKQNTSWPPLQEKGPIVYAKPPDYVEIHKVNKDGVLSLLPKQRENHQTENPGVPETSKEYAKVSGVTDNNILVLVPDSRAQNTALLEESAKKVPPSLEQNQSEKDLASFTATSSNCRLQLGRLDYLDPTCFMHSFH

T4: human PRLR on HEK293/hPRLR cells (Homo sapiens, UniProt P16471)
T4 construct: HA; expressed in transfected cells; host or cells: HEK293
T4 sequence (P16471 25-622): T1 sequence (P16471 25-622)

B1: H1H6967N: anti-PRLR antibody, human IgG1 Fc form of H2M6967N of Table 1; HCVR/LCVR SEQ ID NOs 354/362 (antibody, V domains shown)
VH: EVQLVESGGDLVHPGRSLRLSCAASGFPFDEYAMHWVRQVPGKGLEWVSGISWSNNNIGYADSVKGRFTISRDNAKNSLYLQMNSLRPEDTAFYYCAKSGIFDSWGQGTLVTVSS
VL: EIVMTQSPATLSVSPGERATLSCRASQSVSRDLAWYQQKPGQAPRLLIHGASTRATGIPARFSGSGSGAEFTLIISSLQSEDFAVYYCQQYNNWPLTFGGGTKVEIK
modifications: human IgG1 Fc
B2: H1H6976N: anti-PRLR antibody, human IgG1 Fc form of H2M6976N of Table 1; HCVR/LCVR SEQ ID NOs 386/394 (antibody, V domains shown)
VH: EVQLLESGGGFVQPGGSLRLSCAASGFTFSSYAMSWVRQAPGKGLEWVSIISSNGRYTYYADSVKGRFTISRDNSKNTLYLQMNSLRAEDTAVYYCATVTGDWFDPWGQGTLVTVSS
VL: DIQLTQSPSFLSASVGDRVTITCWASQDIDISLAWYQQKPGKAPKLLIYAASTLQSGVPSKFSGSGSGTDFTLTISSLQPEDFSTYYCQQLNSYPITFGQGTRLDIK
modifications: human IgG1 Fc
B3: H1H6762P: fully human anti-PRLR antibody, human IgG1 Fc; HCVR/LCVR SEQ ID NOs 2/10 (antibody, V domains shown)
VH: QVQLVESGGGVVQPGRSLRLSCAASGFTFSHYGMVWVRQPPGKGLEWVALISFDGTTKYYADSVKGRFTISRDNSKNTLYLQMNSLRAEDTAVYFCVGAIAAAAFDLWGRGTLVTVSS
VL: EIVMTQSPATLSVSPGERATLSCRASQSVSSDLAWYQQKPGQAPRLLIYSASARATGIPARFTGSGSGTDFTLTISSLQSEDFAVYYCQQYNNWPMYTFGQGTKLEIK

Chain of Macaca fascicularis PRLR (mfPRLR.mmh; SEQ ID NO:403) (as listed by the source): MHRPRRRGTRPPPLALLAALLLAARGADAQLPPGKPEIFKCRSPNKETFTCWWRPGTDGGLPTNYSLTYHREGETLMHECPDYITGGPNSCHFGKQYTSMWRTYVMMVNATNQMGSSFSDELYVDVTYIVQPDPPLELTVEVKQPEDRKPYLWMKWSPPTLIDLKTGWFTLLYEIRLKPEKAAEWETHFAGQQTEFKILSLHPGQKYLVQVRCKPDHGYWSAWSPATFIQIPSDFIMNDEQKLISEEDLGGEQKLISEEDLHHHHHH
T6 sequence (P16471 with tags, fused parts or gaps): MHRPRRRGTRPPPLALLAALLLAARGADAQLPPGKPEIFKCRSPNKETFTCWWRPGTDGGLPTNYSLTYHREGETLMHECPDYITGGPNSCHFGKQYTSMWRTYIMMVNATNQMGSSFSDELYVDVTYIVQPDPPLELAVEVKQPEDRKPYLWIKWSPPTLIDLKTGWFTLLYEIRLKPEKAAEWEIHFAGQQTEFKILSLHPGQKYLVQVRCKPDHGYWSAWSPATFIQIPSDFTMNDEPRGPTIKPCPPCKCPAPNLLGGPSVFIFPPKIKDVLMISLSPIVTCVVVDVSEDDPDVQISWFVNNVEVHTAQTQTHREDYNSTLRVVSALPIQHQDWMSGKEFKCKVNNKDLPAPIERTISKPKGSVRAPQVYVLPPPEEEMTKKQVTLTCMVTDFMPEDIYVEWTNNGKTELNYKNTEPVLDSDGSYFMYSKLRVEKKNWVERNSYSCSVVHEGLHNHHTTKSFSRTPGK

The target of one assay is T5, monomeric human PRLR (hPRLR.mmh; SEQ ID NO:401) (Homo sapiens, UniProt P16471).
T5 construct: soluble monomeric (hPRLR.mmh); mmh (myc-myc-hexahistidine) (C)
T5 sequence (P16471 with tags, fused parts or gaps): as the sequence (as listed by the source) above, with V105I, T139A, M154I, T187I, I236T counted along it
Description: Surface plasmon resonance (Biacore T200), antibody-capture format. In kind it is binding. The settings on record: 25° C., analyte hPRLR.mmh. As to the method: (§1) Antibodies, expressed as human IgG1 Fc (i.e., “H1H” designations), were captured onto an anti-human Fc sensor surface (mAb-capture format), and soluble monomeric (hPRLR.mmh; SEQ ID NO:401, or Macaca fascicularis (mf) PRLR.mmh; SEQ ID NO:403) or dimeric (hPRLR.mFc; SEQ ID NO:402) PRLR protein was injected over the sensor surface. Measurements were conducted on a T200 Biacore instrument. Kinetic association (ka) and dissociation (kd) rate constants were determined by processing and fitting the data to a 1:1 binding model using Scrubber 2.0 curve fitting software.
In the case of B1, the ka came out at 246000 M/s and the kd turned out to be 0.000332 s⁻¹.

B2: the ka was 544000 M/s and the kd was 0.000864 s⁻¹.

Take B3: the ka amounted to 692000 M/s and the kd was determined as 0.000179 s⁻¹.

Still in this assay, the particulars now being: 37° C., analyte hPRLR.mmh.
B1 showed a ka of 424000 M/s and a kd of 0.000933 s⁻¹.

Molecule B2 came in with a ka of 777000 M/s and a kd of 0.00314 s⁻¹.

On to B3, for which the ka worked out at 948000 M/s and the kd stood at 0.000455 s⁻¹.

A further assay addresses T6, dimeric human PRLR (hPRLR.mFc; SEQ ID NO:402) (Homo sapiens, UniProt P16471).
T6 construct: dimeric (hPRLR.mFc)
The assay is described as above. The settings on record: 25° C., analyte hPRLR.mFc. It is filed as binding. As to the method: as §1
Molecule B1 came in with a ka of 407000 M/s and a kd of 4.45e-05 s⁻¹.

For B2, the ka stood at 1.12e+06 M/s and the kd came out at 0.000101 s⁻¹.

With B3, the ka turned out to be 651000 M/s and the kd was determined as 6.45e-05 s⁻¹.

The same assay, now with this note: 37° C., analyte hPRLR.mFc.
B1 came in with a ka of 907000 M/s and a kd of 9.73e-05 s⁻¹.

B2 displayed a ka of 1.37e+06 M/s and a kd of 0.00014 s⁻¹.

Molecule B3 displayed a ka of 801000 M/s and a kd of 0.000103 s⁻¹.

A further assay has as its system Macaca fascicularis PRLR (mfPRLR.mmh; SEQ ID NO:403). Described as above. In kind it is binding. The settings on record: 25° C., analyte mfPRLR.mmh. As to the method: as §1
For the molecule B1, the ka was determined as 190000 M/s and the kd stood at 0.000585 s⁻¹.

Regarding B2, the ka came out at 466000 M/s and the kd stood at 0.000814 s⁻¹.

B3 came in with a ka of 408000 M/s and a kd of 0.000208 s⁻¹.

The assay is the same for the next values; noted with them: 37° C., analyte mfPRLR.mmh.
For the molecule B1, the ka was determined as 356000 M/s and the kd worked out at 0.00162 s⁻¹.

For B2, the ka amounted to 603000 M/s and the kd amounted to 0.00316 s⁻¹.

B3 displayed a ka of 679000 M/s and a kd of 0.000558 s⁻¹.

The target in a further assay is T1, native PRLR expressing T47D cells. As to the kind of experiment: FACS cell surface binding.
Details: not given
As to the method: (§2) Cell surface expression of PRLR on 293/hPRLR cells was assessed via FACS analysis. Briefly, 1×10^5 cells were incubated with 10 μg/ml of Control antibody I, or an isotype control for 30 min on ice in antibody dilution buffer. Following two washes with antibody dilution buffer, cells were incubated with 10 μg/ml of PE conjugated anti-human secondary antibodies for 30 min on ice. Following two additional washes, samples were run on a Hypercyt® cytometer and analyzed in ForeCyt™ (IntelliCyt, Albuquerque, N. Mex.). The mean fluorescence intensities (MFI) were expressed as fold change above isotype control levels (background). FACS binding confirmed that Control I selectively bound to 293/hPRLR expressing cells with MFIs that were 30 fold above background (isotype ctrl) levels and less than 2 fold binding on parental cells.
(§3) Next, the anti-PRLR antibodies were tested via FACS for selective binding to the engineered overexpressing PRLR HEK293 cell lines, as well as to non-expressing HEK293 cells and a native PRLR expressing cell line (T47D).
In the case of B1, the “FACS Cell Binding” value amounted to 41 Fold Above Background.

For the molecule B2, the “FACS Cell Binding” value stood at 37 Fold Above Background.

With B3, the “FACS Cell Binding” value is on record as 38 Fold Above Background.

Another assay has as its system HEK293 parental cells. As to the kind of experiment: FACS cell surface binding.
Details: not given
Also on record: species or system human. As to the method: (§4) The ability of anti-PRLR antibodies to selectively bind PRLR expressing cell lines was next determined. Human, monkey Macaca fascicularis, and mouse PRLR constructs with an HA tag were stably introduced into HEK293 cells via Lipofectamine 2000-mediated transfection methodology. Transfectants (HEK293/hPRLR, HEK293/mfPRLR and HEK293/mPRLR) were selected for at least 2 weeks in complete growth media plus G418.
as §2, §3
Take B1: the “FACS Cell Binding” value is recorded as 1 Fold Above Background.

Consider B2, for which the “FACS Cell Binding” value was determined as 1 Fold Above Background.

With B3, the “FACS Cell Binding” value turned out to be 1 Fold Above Background.

A further assay deals with T2, monkey PRLR on HEK293/mfPRLR cells. Description: FACS cell surface binding.
Details: not given
As to the method: as §4, §2, §3
For B1, the “FACS Cell Binding” value was determined as 28 Fold Above Background.

Regarding B2, the “FACS Cell Binding” value worked out at 29 Fold Above Background.

For the molecule B3, the “FACS Cell Binding” value came to 26 Fold Above Background.

In another assay the target is T3, mouse PRLR on HEK293/mPRLR cells. Description: FACS cell surface binding.
Details: not given
As to the method: as §4, §2, §3
As for B1, the “FACS Cell Binding” value was 2 Fold Above Background.

For B2, the “FACS Cell Binding” value amounted to 1 Fold Above Background.

For B3, the “FACS Cell Binding” value was 2 Fold Above Background.

A further assay has as its target T4, human PRLR on HEK293/hPRLR cells. As to the kind of experiment: FACS cell surface binding.
Details: not given
As to the method: as §4, §2, §3
Take B1: the “FACS Cell Binding” value is recorded as 38 Fold Above Background.

With B2, the “FACS Cell Binding” value was determined as 8 Fold Above Background.

On to B3, for which the “FACS Cell Binding” value is listed as 36 Fold Above Background.

The record behind these values is patent publication US10925971B2, “Methods of treating PRLR positive breast cancer” (Regeneron Pharmaceuticals, Inc., priority 2016, dated 2021).
